The values below come from patent US20140193434A1 (TORAY INDUSTRIES, published 2014).

The target in the assay is T1, human CAPRIN-1 protein on the cell membrane surface of human cancer cell lines (human, UniProt Q14444 2-709).
T1 sequence (looked up): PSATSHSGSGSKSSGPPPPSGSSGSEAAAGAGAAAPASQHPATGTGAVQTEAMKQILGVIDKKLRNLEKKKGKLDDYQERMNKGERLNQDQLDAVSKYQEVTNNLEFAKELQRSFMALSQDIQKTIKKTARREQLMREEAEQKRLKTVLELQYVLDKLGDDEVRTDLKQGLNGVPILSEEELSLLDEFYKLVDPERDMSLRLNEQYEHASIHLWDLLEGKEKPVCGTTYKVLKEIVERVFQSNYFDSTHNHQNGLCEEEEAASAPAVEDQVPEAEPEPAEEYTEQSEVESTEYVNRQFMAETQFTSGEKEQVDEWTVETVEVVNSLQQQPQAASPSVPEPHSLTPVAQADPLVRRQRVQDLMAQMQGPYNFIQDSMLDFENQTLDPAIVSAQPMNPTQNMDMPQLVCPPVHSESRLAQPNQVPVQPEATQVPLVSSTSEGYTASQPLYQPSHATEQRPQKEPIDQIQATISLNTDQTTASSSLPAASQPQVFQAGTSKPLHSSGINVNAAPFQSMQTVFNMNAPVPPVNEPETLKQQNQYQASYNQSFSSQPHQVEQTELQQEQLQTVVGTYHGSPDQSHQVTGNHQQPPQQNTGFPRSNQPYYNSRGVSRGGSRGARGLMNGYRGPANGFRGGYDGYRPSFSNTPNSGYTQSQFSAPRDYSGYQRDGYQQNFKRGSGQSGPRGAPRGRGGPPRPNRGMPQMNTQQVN
Briefly: cell-based or functional assay.

Where only a bound is given, the exact number is not on record here.

B1: human-mouse chimeric comparative monoclonal antibody 7 (antibody, human IgG1, kappa, V domains shown)
VH: LQESGAELARPGASVKLSCKASGYTFTSYWMQWVKQRPGQGLEWIGAIYPGDGDTRYTQKFKGKATLTADKSSSTAYMQLSSLASEDSAVYYCARGEYGNYFAYWGQGTTVTVSS
VL: TSDASLGERVTITCKASQDINSYLSWFQQKPGKSPKTLIYRANRLVDGVPSRFSGSGSGQDYSLTISSLEYEDMGIYYCLQYDEFPLTFGGGTKLEIKQ
Turning to B1, the “cytotoxic activity (ADCC, chromium 51 release) against MCF7, HCT-116, MIAPaCa-2, Caki-2 and QG56” value (“cytotoxic activity” below) was < 5%.

B2: human-mouse chimeric comparative monoclonal antibody 3 (antibody, human IgG1, kappa)
heavy: not shown
light: RTTSHMDSDIQLTQSPASLSASVGETVTITCRASGNIHNYLAWYQQKQGKSPQLLVYNAKTLADGVPSRFSGSGSGTQYSLKINSLQPEDFGSYYCQHFWSTLTFGGGTKLEIKQSDTVAAPSVFIFPPSDEQLKSGTASVVCLLNNFYPREAKVQWKVDNALQSGNSQESVTEQDSKDSTYSLSSTLTLSKADYEKHKVYACEVTHQGLSSPVTKSFNRGEC
Regarding B2, the “cytotoxic activity” value was < 5%.

B3: human-mouse chimeric comparative monoclonal antibody 4 (antibody, human IgG1, kappa, V domains shown)
VH: EVQLHQFGAELVKPGASVKISCKASGYTFTDYNMDWVKQSHGKSLEWIGDINPNYDSTSYNQKFKGKATLTVDKSSSTAYMELRSLTSEDTAVYYCARSRSYDYEGFAYWGQGTLVTVSA
VL: SGDRVSLSCRASQSISNYLHWYQQKSHESPRLLIKYASQSISGIPSRFSGSGSGTDFTLSINSVETEDFGMYFCQQSNSWPYTFGAGTKLEIKQ
On to B3, for which the “cytotoxic activity” value was < 5%.

B4: human-mouse chimeric comparative monoclonal antibody 1 (antibody)
heavy: not shown
light: DIQMTQSPASLSASVGETVTITCRASGNIHNYLAWYQQKQGKSPQLLVYNAKTLADGVPSRFSGSGSGTQYSLKINSLQPEDFGSYYCQHFWSTLTFGAGTKLELKRTVAAPSVFIFPPSDEQLKSGTASVVCLLNNFYPREAKVQWKVDNALQSGNSQESVTEQDSKDSTYSLSSTLTLSKADYEKHKVYACEVTHQGLSSPVTKSFNRGEC
As for B4, the “cytotoxic activity” value was < 5%.
